{"source": "paper PMC11485749", "about": "(mAbs, 2024)", "binders": {"B1": {"name": "23ME-00611 (antibody, V domains shown)", "VH": "EVQLQESGPGLVKPSETLSLTCTVSGFSLTNYRVSWVRQPPGKGLEWLGVMYAGGGTNYNSVFKSRLTISKDNSKNQVSLKLSSVTAADTAVYYCARERPLTGVMDNWGQGTLVTVSS", "VL": "DIVLTQSPDSLAVSLGERATINCRASESVDYSGNSFMHWFQQKPGQPPKLLIYRASNLESGIPDRFSGSGSRTDFTLTISSLQAEDVAVYYCHQSNWDPPTFGGGTKVEIK"}, "B2": {"name": "23ME-00610_A33R (antibody, V domains shown)", "VH": "B1 VH with Y52W, N107Y", "VL": "B1 VL with W97E"}, "B3": {"name": "23ME-00610_E93W (antibody, V domains shown)", "VH": "B1 VH with R33A, Y52W, N107Y", "VL": "B1 VL"}, "B4": {"name": "23ME-00610 (antibody, V domains shown)", "VH": "B1 VH with R33A, Y52W, N107Y", "VL": "B1 VL with W97E"}}, "key": {"[1]": {"biological_target": "T1, recombinant MfCD200R1 ECD (Macaca fascicularis, UniProt G7NZT0)", "assay": "SPR"}, "hCD200R1-iso4-Ref ECD [2]": {"biological_target": "T2, hCD200R1-iso4-Ref ECD (Homo sapiens, UniProt Q8TD46)", "T2 sequence (Q8TD46 29-265)": "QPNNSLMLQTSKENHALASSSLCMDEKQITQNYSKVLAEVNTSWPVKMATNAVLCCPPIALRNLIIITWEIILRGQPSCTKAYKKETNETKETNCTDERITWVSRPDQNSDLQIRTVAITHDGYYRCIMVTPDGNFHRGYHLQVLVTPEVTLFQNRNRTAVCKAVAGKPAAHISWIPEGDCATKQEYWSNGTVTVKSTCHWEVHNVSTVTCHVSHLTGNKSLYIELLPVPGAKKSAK"}, "[3]": {"biological_target": "T1, recombinant MfCD200R1 ECD", "assay": "SPR", "remark": "listed apart in the source"}, "[4]": {"biological_target": "WT hCD200R1-iso4-Ref expressed on Expi293 cells (Homo sapiens, UniProt Q8TD46, strain)", "sequence (Q8TD46 whole entry, looked up, change not shown)": "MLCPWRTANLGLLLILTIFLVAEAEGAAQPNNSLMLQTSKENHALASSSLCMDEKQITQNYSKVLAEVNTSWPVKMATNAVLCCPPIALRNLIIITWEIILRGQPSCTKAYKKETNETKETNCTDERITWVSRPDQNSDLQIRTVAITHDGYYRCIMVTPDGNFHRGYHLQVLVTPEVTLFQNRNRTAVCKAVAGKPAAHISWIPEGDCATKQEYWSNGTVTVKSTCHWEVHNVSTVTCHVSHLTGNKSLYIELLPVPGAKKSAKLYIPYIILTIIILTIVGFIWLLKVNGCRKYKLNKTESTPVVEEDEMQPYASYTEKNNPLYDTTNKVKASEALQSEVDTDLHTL", "assay": "flow cytometry on cells"}, "hCD200R1-iso4-Ref ECD [5]": {"biological_target": "T2, hCD200R1-iso4-Ref ECD", "assay": "SPR"}}, "note": "Positions count from the first letter of the chain named. Where two headings read alike, the source gives them in different places.", "data": [{"binder": "B1", "values": [{"measurement": "Kd", "setting": "[1]", "value": 2, "unit": "nM"}, {"measurement": "Kd", "setting": "hCD200R1-iso4-Ref ECD [2]", "value": 1, "unit": "nM"}]}, {"binder": "B2", "values": [{"measurement": "binding result", "setting": "[3]", "value": "binds"}]}, {"binder": "B3", "values": [{"measurement": "binding result", "setting": "[3]", "value": "binds"}]}, {"binder": "B4", "values": [{"measurement": "binding result", "setting": "[4]", "value": "binds"}, {"measurement": "binding result", "setting": "[1]", "value": "no binding (tested: up to 200 nM)"}, {"measurement": "Kd", "setting": "hCD200R1-iso4-Ref ECD [5]", "value": 0.1, "unit": "nM"}]}]}
